Here are results for 34 sequences from the NTF2 design screens of Basanta et al. (2020).

The series is described as follows: protease stability score; higher = more stable; yeast display proteolysis, trypsin and chymotrypsin.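 Note: log10 excess protease needed over predicted unfolded state with 0 meaning unfolded.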
The sequence “DEDENNKILESINTNDSKHNKDLLDKDVTIRYGDKQVQGREEALEFLDTWNKRVDHFRVHHMTVKGDKLRMRFEIVFNGVTVEVSLSAKVENGRMKHFHLDARDEKVRHRLKRMFG” showed a protease stability score of 0.108.

“DEDEQKVAKTFVEAVRQGDEKQIDDLADPNVRLRVGDKTLHGRDQLREHVRQMKEELKVEWSVQHVDFSDGRARIHAEMRVDVNGKPVTDDVTFFIEVKNGKVKNVEIHMDESVKREAEQ”: the protease stability score came out at 0.548. Then “DEDEQRKIDETMHRLMEENNFDQLARTADENVRIVIGDKTYRGREQAVSAFRKLREHVDHADVKSVEIRNGRVLIKARLSFNGRTADVVFTFQFTNGRIQWAEVDPHAVRNARE”, with 1.06. For “DEDEQRTLVEQLARAIQQGDEDQVRKLADPNAKARYGDHEIHGHDQLAHVVRQLKDQVDSIEVESFSVRNGRAELDIRFDVNGRDVKITINAEIRNGRMKHVEFQYTNEDQEKTANR” the value was 0.948; for “DEDERAEKMARTAQEILETGDEEKAKRLFPPNARAKVGDRTYHGREDIVKHLKELWDRADHVRVEIKSFRVRGDNVHVVMTLVFTYNGKNETQQLTMIFVHVNGRQVAQDMKIG”, 0.671; for “DEDERQDLARKYNKALKQGDSKKFEELVDKHVKVEVGETRFHGREQASKNFRELVDNFDEFEVKSLEVHGESVTVEAVARINGRTANIRFQRTIHNGKNQVVKLNPDDMRRNLK”, -0.134. “DEDETAKRVNDKAREAAETNNPKQFEELADPNVRMVIGDKEWRGRRQLSHWYKEMADRADHMQVDYQDVHVSGDKVTLHVQINLESNGHSEIKTLIVVMVVHNGRLRAQSQWEQ” displayed a protease stability score of 0.534. For the sequence “DEDEVEKIATTIKDVIQEGNFRQLEKLADPNAKVVIGDKTYRGRDAMRHAAQLLQQRADHITVQTVHVHGNKVEAHLRATVNGRDVHFVVKVTLENGRIKNMKIEYTDEDKFKEMVG”, the protease stability score stood at 1.31. Then “DEDEVKEVLKRIKSNDWHTLAKQADENARAVVGDKTYHGRTQMKKWMDKVRKRVDHIEISKVKQEGDKAVVDLVFQVNGVKVHLVIYIHVHNGKVVDVQAKARNEEELHKLKKAVS”, with 0.331. Then “DEDEVRKAKKYIENWEQGNPKDLQEQADENASAQYGDKRIHGMTKIAKFVHKEHEESRVEIQDVQIEAHNGTVHIEIRAIFDHNGKPSQKKVFMSMTMHNGKVKDAELHSDK”, with 0.155; and “DEDEVRKIAEDVLRIIETGNPDDAMEQADENAEVIVGDKTYSGRTELRKVIHHMREKVDHMQVKSYDAHGNKATAVFILDNNGRKDEHVVYFDFHNGRLKKVNIQKK”, with 0.243. For “DEDEWRKIWTVFENNDPRKFKTMVDKHAHAEVGDTEFHGREQIQHYFERLIRRVDHIEYKSVNIHGDKMRAEVVLNVDGQNLRYVYEVTVHNGRIKMMRIRFTDEEVERQMKRIVK” the value was 0.209; for “DEDEYAHQVAQELRKAMETGDSDRIARLFDENAELRVGDKVWHGRDQIRKYWHEWLRRADTVDVKIDEVDVEGDKARAHIRVRAEDNGRHQEFTVKMTLKNKNGRAKITSMHVS”, 1.57. On to “DEDFDTQLEEMLKNILNGNTEEIDKYADPNVKLEVGDHEYHGREHVKENWKEELDHMDVEVKSVHISARDGRAHVNLEFVVNIDGRPRHVKVREEFVWKNGKLKRANRHFSEEVKRQLER”, for which the protease stability score was found to be 0.677. For “DEDFMNKFEELLRNQQTGDPQFVADQADPNARWNVGDKQLHGRHQIRHQAKTESDQMEVQIDRMDVKVQNGHIDARINRQSNENGRPSRNELDQTVHYHNGKLKQLDESTSH” the value was -0.44; for “DEDFWERVESMLRLWKHGNEDEWSKNADPNVRYVYGEKVVTGREQAKHMFRKVKDEIRFTFEFKRVRIQGDTIEAKFEFRADRNGKPRSANATVTIRFEGDKVHDNDVKSQS”, 0.42. Then “DEDFWRRLVTLMQKNDFDQLARLVDPNAEVTVGDKTYEGRENIQKMWHKLKKQFDHYEIKTYRVKGDKLDMDYVFVVNGQQVRAKVEMRVHNGRLVELRFDARNPDELDTVRRILS”, with 1.55. Then “DEDHASRQAKKFIDAMRSGDEELAKNLVDKDVTAIYGDRTVNGREQVMKMVKEFRNQADEITVDDMKVKNGRVVIHLKMDINGEQEVVIVILDIRNGRAKEISFERR”, with 1.27.

“DEDHDVRVAENLLEAIRTGNEDEVTRLADENAELEIGDHRYHGREQVSSAAKRINDRADDISINEVHYTGDKLSVQMQMNVNGKNIVVDVVVVAHNGRVKTVRFQYTSEEDFKKFES” returned a protease stability score of 0.538. For “DEDHEAQRFFDHFEEVVQTGDPDQAKQLIDKNATAKYGDQEYHGWEDVHKHWLRLRRQADHIKFEVDDVRATNGRYEIQFVVIIDTNGNENTRRYRLQAQEDNGRLRVQNLTQQ” the value was 1.49; for “DEDHESRVVELLEEIVRKGDPDEVRRQADPDARVDYGDKRLHGRDFRKAAKIIEEMRVDHQQFTTYKTHNGRAQMLVTVEHNGERRDIQIIVHYRGDKMKEMRFDTG”, -0.224; for “DEDHIKTHAEELMNALSRGDEKRFVDLVDPNARFRIGDKEYKGSEQLHTLMREIHTEVDHIEVRHLRVRNGQVQATIRYDINGKTRSMTIHFEVENGRVKHMEVSSQ”, 1.3.

In turn, “DEDHKAREMMRRWEHNWRTGDPNKLANQFDPNATWDVGDHTIKGREQYAEQIKRNMEQADDVHITVKDVKREGETIVVRFHDVQNHNGQNRVTIVNARFFDDNGSFVMVSFKQE” registered a protease stability score of -0.321.

The sequence “DEDHLHRLVKEMVKVLQQGDPDRFMELADKDATAVIGDKRFHGRTQARKAVKEFTDTVDHIRIKTFNAHGDKVTIVVRLDHNGKNAILRIEFQVDNGRFKEVVFDPDHLQDLRR” showed a protease stability score of 0.071. Then “DEDHLKDANRRVVHALEHGDPDEFMNMADKDVQIEIGDTVVEGSHKLKEWAEDLHNRVDHIEILKVDLQGDTLNLNVRMRSNGHNRNAVLHVRVHNGKIQSLRMKDN”, with 0.55; and “DEDHLKKFVSDLQHNSHERLSKQADENAEMEVGNKTYSGREQFSHFAQQQYHRADHFTIDRVEIRNGHITLEAVMVVDGHKIRFSAHAELHNGRLKFYVMKATNEDLVRQMNRLNN”, with 0.701; and “DEDHLRKLKEYVKNYNKGDPDKLDEYLDPNVRINVGDHTVHGMDEHNKQAEERTRNMRIQLRRVDVKARNGQLKATINAEAEVNGRPATLHADITVKMHNGKVKNIHVRMPEDYKREREK”, with 0.008. As to “DEDHMRTLIQRFIEAVQKGDEEQIKRLADPNARMRVGEREIHGREEIAKEIKDIRDQVDHINIRTWSFHNGEAHLEVEYNHNGQHRTMKLRIVVRNGKLQELEWRKG”, the protease stability score came to 2.39. Then “DEDHNRRLAHTIVEILRTGDPDKMNEQLDPNARAHYGDHEIHGRENVAKMVKELHDRVDHFTVKTYDADGDHITIELVMKVNGRNVEMTVVVRVRNGRLVDLRYRYTSEEQEKTEKE”, with 2.12.

“DEDHNRRVAKRFIEAVLSGDPEQAKRNADKHVKLQVGDKEYRGRDDLKTWIEQVSTRADHNQIHSMSVSGNRMNVDVKFNHNGRRERTVIRVEVENGKVKKVEVHSG” gave a protease stability score of 0.975.

“DEDHQAEKIFRDLVEAFKNGDEKRAEELFDPNARLQYGDKTYHGRKAASRLVSHVRTEFDHVDWQIKSVTRTGDKIDIDVDATADHNGHQDKFKIIITLKVTNGKAVLKEVRFK”: the protease stability score stood at 1.94.

Take “DEDHRERLANHAVEAFQDGDPQQMEELADEDARAEVGDKELTGRERISKMVKTIADNVDHIELKSYEKTGDTVRFHMVLDDNGKQKRLVLVVRIHNGRLKELRIQQS”: the protease stability score came to 1.53. For “DEDHVQDKAEDLARAIQRGDEDRMNELFDENVKVQVGDKTIHGRENVVDHMREQNEQADRIEIKSITATGDKIRIEMVVVHNGQNTHVVFEVKWENGKIKHMTQKTE” the value was 1.94; for “DEDINKMVKEFIRNMQNGNHSRLAQLADPNARVQIGDKTLHGREDLERHVRELTERSRVEYKSVDVKVHNGRAHLHLDVVVHHNGRPQRSRVQAVFTAQGDKIKDIRVESNQ”, 0.116.
